Experimental data as given in PMC10322983, “Intramolecular interaction kinetically regulates fibril formation by human and mouse α-synuclein” (Scientific Reports, 2023).

Biological target: the molecule itself
Assay: thioflavin T fluorescence of fibril formation; monomeric αS (50 μM in Fig. 5; 20–200 μM in Fig. 4) with 10 μM ThT, 96-well plates with Teflon polybeads, shaking at 500 rpm, 37 °C (other temperatures in Fig. 6), PBS

B1: m-αS Δ104–140 (domain or fragment)
chain: not shown
B1: binds.
